Our source for the Top(MFI) values is patent publication US20260226168A1.

The target of experiment [1] is hGPRC5D (UniProt Q9NZD1). As to the kind of experiment: flow cytometry on RPMI-8226 cells; negative control (EC50 '/': curve could not be fitted). (In flow cytometry, cells or beads pass a laser one at a time.)
For experiment [2], the target named is hGPRC5D (UniProt Q9NZD1). As to the kind of experiment: flow cytometry on MM.1S cells; negative control (EC50 '/': curve could not be fitted).
Experiment [3] deals with hGPRC5D (UniProt Q9NZD1). Briefly: flow cytometry on NCI-H929 cells; negative control (EC50 '/': curve could not be fitted).

hGPRC5D, sequence (Q9NZD1 whole entry): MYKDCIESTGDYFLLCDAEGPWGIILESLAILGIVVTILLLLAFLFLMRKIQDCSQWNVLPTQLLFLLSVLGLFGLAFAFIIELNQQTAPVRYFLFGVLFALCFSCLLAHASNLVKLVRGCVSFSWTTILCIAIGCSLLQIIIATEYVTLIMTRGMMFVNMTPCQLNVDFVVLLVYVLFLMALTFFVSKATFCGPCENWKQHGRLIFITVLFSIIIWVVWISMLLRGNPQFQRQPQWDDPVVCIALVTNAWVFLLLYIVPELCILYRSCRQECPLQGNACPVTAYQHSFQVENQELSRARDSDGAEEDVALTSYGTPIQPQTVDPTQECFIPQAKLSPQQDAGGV

In the case of “hIgG1 monoclonal antibody (Biointron, Cat. No. B117901)”, the Top(MFI) in experiment [1] is 3860; in experiment [2], 6770; in experiment [3], 4180.
